Consider two molecules from PMC3120129 (Biochemistry, 2011).

Series [1] concerns the target E2 domain of amyloid precursor protein (APP), construct APP_(346–548), native (human) (UniProt P05067). In words: AUC.
Series [2] deals with the molecule itself. In words: crystal structure.

The term stoichiometry N denotes the number of molecules, sites or subunits per partner or assembly. On to “E2 domain of amyloid precursor protein (APP), construct APP_(346–548), native (from UniProt P05067-8 346-548) (domain or fragment)”, for which, in series [1], the Kd was found to be 9.2 µM and the stoichiometry N worked out at 2.

B1: E2 domain of APLP1, construct APLP1_(285–499) (crystallised) (domain or fragment, human, UniProt P51693 285-499, looked up)
chain: TPTPRPTDGVDIYFGMPGEISEHEGFLRAKMDLEERRMRQINEVMREWAMADNQSKNLPKADRQALNEHFQSILQTLEEQVSGERQRLVETHATRVIALINDQRRAALEGFLAALQADPPQAERVLLALRRYLRAEQKEQRHTLRHYQHVAAVDPEKAQQMRFQVHTHLQVIEERVNQSLGLLDQNPHLAQELRPQIQELLHSEHLGPSELEAPA
As for B1, the binding result in series [2] was “binds”.
